Results published in patent US5889152A, “Porphenins--antibiotic peptides” (Regents of the University of California, priority 1995, dated 1999).
Where no end group is shown, it is not given here.

Tests used:
[1] = test system: lipid polysaccharide (LPS) of the Gram-negative bacterium E. coli strain 0.55B5; assay: Limulus amebocyte lysate (LAL) test for endotoxin binding; type: biochemical; conditions: for concentration giving complete inhibition of gelation / concentration giving complete inhibition of gelation, molar: LAL test; for LAL gel formation: peptide 0.63 μg/ml (.625 in Table 4), LPS 0.05 endotoxin unit/ml
Procedure: The prophenins of the invention were tested for their ability to bind the lipid polysaccharide (LPS) of the Gram-negative bacterium E. coli strain 0.55B5. The assay was the Limulus amebocyte lysate (LAL) test for endotoxins conducted in the presence and absence of the test compounds. The test was conducted using the procedure described in Sigma Technical Bulletin No. 210 as revised in December 1992 and published by Sigma Chemical Company, St. Louis, Mo.
The LAL test is based on the ability of LPS to effect gelation in the commercial reagent E-TOXATE™ which is prepared from the lysate of circulating amebocytes of the Horseshoe Crab Limulus polyphemus. As described in the technical bulletin, when exposed to minute quantities of LPS, the lysate increases in opacity as well as viscosity and may gel or clot depending on the concentration of endotoxin. The technical bulletin goes on to speculate that the mechanism appears analogous to the clotting of mammalian blood and involves the steps of activation of a trypsin-like preclotting enzymes by the LPS in the presence of calcium ion, followed by enzymic modifications of a "coagulogen" by proteolysis to produce a clottable protein. These steps are believed tied to the biologically active or "pyrogenic" portion of the molecule. It has been shown previously that detoxified LPS (or endotoxin) gives a negative LAL test.
Polymyxin B is a cyclic 1.2 kD acylated […] obtained from Bacillus polymyxa. Polymyxin B was used as a positive control since it is known to inhibit LPS-induced Limulus hemocyte lysate clotting.
In the assay, the amounts of prophenin-1 and polymyxin B (78% free polymyxin, Sigma) were preincubated in a final volume of 0.2 ml and the test mixtures contained LPS at a final concentration of 0.05 endotoxin unit/ml and E-TOXATE™ at the same concentration. The test compounds were incubated together with the LPS for 15 minutes before the E-TOXATE™ was added to a final volume (after E-TOXATE™ addition) of 0.2 ml. The tubes were then incubated for 60 minutes at 37° C. and examined for the formation of a gel.
The ability of fragments of prophenin-1 to bind LPS was also assayed. Prophenin-1 was digested with TLCK treated trypsin as described above, thus cleaving the protein C-terminal to the initial 4 arginines. The fragments were purified by RP-HPLC, and their identities were verified by ESI-MS and amino acid composition analysis. The three fragments were those obtained as described in Example 1 and are as follows: […]

[2] = test system: C. albicans, strain 820; assay: Radial diffusion assay in agarose gels, C. albicans; type: cell-based, Candida albicans; conditions: clear zone units
Procedure: (§1) Aliquots (66 μl) of each fraction were dried by vacuum centrifugation, and resuspended in approximately 6.6 μl of 0.01% acetic acid. […] samples of this concentrate were tested for antimicrobial activity against E. coli ML-35, L. monocytogenes, Strain EGD and C. albicans, strain 820 by radial diffusion and gel overlay techniques (Lehrer, R. I. et al. J Immunol Meth (1991) 137:167-173). Active fractions were further examined by acid-urea PAGE and SDS-PAGE. Prophenins emerged from the P10 column in fractions 38-43 (39.6 ml total volume), which contained a total of 18 mg protein by BCA analysis.
(§2) The radial diffusion assay in agarose gels as described above was also used to test the activity of the purified prophenins. Samples of 5 μL each were added to 3 mm wells in thin gels composed of 10 mM sodium phosphate, 30 mg/ml trypticase soy broth powder in 1% agarose and containing approximately 4×10^5 CFU/ml of mid-log phase organisms. After allowing 3 hours for the samples to diffuse into the underlayer gel, a nutrient-rich overlay gel was poured and the plates were incubated for 24 hours at 37° C. to allow surviving organisms to form microcolonies. The diameters of the clear zones were measured and expressed in "units" (10 units=1 mm) as described previously.

[3] = test system: E. coli ML-35; assay: Radial diffusion assay in agarose gels, E. coli; type: cell-based; conditions: for inhibitory activity (FIG. 4a): E. coli ML-35, clear zone units
Procedure: as §1, §2

[4] = test system: L. monocytogenes, Strain EGD; assay: Radial diffusion assay in agarose gels, L. monocytogenes; type: cell-based, Listeria monocytogenes
Procedure: as §1, §2

Row | Molecule | concentration giving complete inhibition of gelation [1] [µg/mL] | concentration giving complete inhibition of gelation, molar [1] | LAL gel formation [1] | inhibitory activity (FIG. 4c) [2] | inhibitory activity (FIG. 4a) [3] | specificity for Gram-negative bacteria ([3]; compared over E. coli, L. monocytogenes, C. albicans) | LPS binding / inactivation in words [1] | potency in binding LPS relative to polymyxin B sulfate, molar basis ([1]; 4.2/0.072) | concentrations at which some activity was shown ([4]; FIG. 4b) | inhibitory activity (FIG. 4b) ([4]; clear zone units)
1 | Polymyxin B [reference compound] | 5 | ≈ 4.2 μM | ++ |  |  |  |  |  |  | 
2 | HNP-1: human defensin (HNP-1), control |  |  |  | substantially noninhibitory |  |  |  |  |  | 
3 | PG-3: protegrin-3 (PG3), control (RGGGLCYCRRRFCVCVGR; ends and bridges not checked; cysteine pairing not given here; UniProt P32196 131-148, looked up) [reference compound] |  |  |  | successful antifungals | more inhibitory than HNP-1 |  |  |  |  | 
4 | Prophenin-1: 79-residue proline-rich antimicrobial peptide purified from porcine leukocytes, mass 8,683, SEQ ID NO:1 (protein) AFPPPNVPGPRFPPPNFPGPRFPPPNFPGPRFPPPNFPGPRFPPPNFPGPPFPPPIFPGPWFPPPPPFRPPPFGPPRFP | 0.625 | ≈ 72 nM | 0 | substantially noninhibitory | comparable in inhibitory activity to PG3 and NP1 | highly specific for Gram-negative bacteria | more effective than the additive value of the subunits | approximately 60 fold | above 100 μg/ml | substantially less inhibitory
